Results published in patent US20110171126A1.

Experiments:
[1] = target: HLA-DR as expressed by cancer cell lines (human); test: cell-based or functional assay
[2] = target: HLA-DR as expressed by cancer cell lines (human); test: flow cytometry, surface, RL cells
[3] = target: HLA-DR as expressed by cancer cell lines (human); test: flow cytometry, surface, CAG cells
[4] = target: HLA-DR as expressed by cancer cell lines (human); test: flow cytometry, surface, U87 cells
[5] = target: HLA-DR as expressed by cancer cell lines (human); test: flow cytometry, surface, HT29 cells
[6] = target: HLA-DR as expressed by cancer cell lines (human); test: flow cytometry, surface, Lovo cells
[7] = target: HLA-DR as expressed by cancer cell lines (human); test: flow cytometry, surface, U118 cells
[8] = target: HLA-DR as expressed by cancer cell lines (human); test: flow cytometry, surface, FSCCL cells
[9] = target: HLA-DR as expressed by cancer cell lines (human); test: flow cytometry, surface, KMS11 cells
[10] = target: HLA-DR as expressed by cancer cell lines (human); test: flow cytometry, surface, Moser cells
[11] = target: HLA-DR as expressed by cancer cell lines (human); test: flow cytometry, surface, TU118 cells
[12] = target: HLA-DR as expressed by cancer cell lines (human); test: flow cytometry, surface, Aspc-1 cells
[13] = target: HLA-DR as expressed by cancer cell lines (human); test: flow cytometry, surface, BxPC-3 cells
[14] = target: HLA-DR as expressed by cancer cell lines (human); test: flow cytometry, surface, LS174T cells
[15] = target: HLA-DR as expressed by cancer cell lines (human); test: flow cytometry, surface, Panc-1 cells
[16] = target: HLA-DR as expressed by cancer cell lines (human); test: flow cytometry, surface, Capan-1 cells
[17] = target: HLA-DR as expressed by cancer cell lines (human); test: flow cytometry, surface, RL cells + IFNγ
[18] = target: HLA-DR as expressed by cancer cell lines (human); test: flow cytometry, surface, CAG cells + IFNγ
[19] = target: HLA-DR as expressed by cancer cell lines (human); test: flow cytometry, surface, U87 cells + IFNγ
[20] = target: HLA-DR as expressed by cancer cell lines (human); test: flow cytometry, surface, HT29 cells + IFNγ
[21] = target: HLA-DR as expressed by cancer cell lines (human); test: flow cytometry, surface, Lovo cells + IFNγ
[22] = target: HLA-DR as expressed by cancer cell lines (human); test: flow cytometry, surface, U118 cells + IFNγ
[23] = target: HLA-DR as expressed by cancer cell lines (human); test: flow cytometry, surface, Capan cells + IFNγ
[24] = target: HLA-DR as expressed by cancer cell lines (human); test: flow cytometry, surface, FSCCL cells + IFNγ
[25] = target: HLA-DR as expressed by cancer cell lines (human); test: flow cytometry, surface, KMS11 cells + IFNγ
[26] = target: HLA-DR as expressed by cancer cell lines (human); test: flow cytometry, surface, Moser cells + IFNγ
[27] = target: HLA-DR as expressed by cancer cell lines (human); test: flow cytometry, surface, TU118 cells + IFNγ
[28] = target: HLA-DR as expressed by cancer cell lines (human); test: flow cytometry, surface, Aspc-1 cells + IFNγ
[29] = target: HLA-DR as expressed by cancer cell lines (human); test: flow cytometry, surface, BxPC-3 cells + IFNγ
[30] = target: HLA-DR as expressed by cancer cell lines (human); test: flow cytometry, surface, LS174T cells + IFNγ
[31] = target: HLA-DR as expressed by cancer cell lines (human); test: flow cytometry, surface, Panc-1 cells + IFNγ
[32] = target: HLA-DR as expressed by cancer cell lines (human); test: flow cytometry, permeabilized (cytoplasmic), RL cells
[33] = target: HLA-DR as expressed by cancer cell lines (human); test: flow cytometry, permeabilized (cytoplasmic), CAG cells
[34] = target: HLA-DR as expressed by cancer cell lines (human); test: flow cytometry, permeabilized (cytoplasmic), U87 cells
[35] = target: HLA-DR as expressed by cancer cell lines (human); test: flow cytometry, permeabilized (cytoplasmic), HT29 cells
[36] = target: HLA-DR as expressed by cancer cell lines (human); test: flow cytometry, permeabilized (cytoplasmic), Lovo cells
[37] = target: HLA-DR as expressed by cancer cell lines (human); test: flow cytometry, permeabilized (cytoplasmic), U118 cells
[38] = target: HLA-DR as expressed by cancer cell lines (human); test: flow cytometry, permeabilized (cytoplasmic), FSCCL cells
[39] = target: HLA-DR as expressed by cancer cell lines (human); test: flow cytometry, permeabilized (cytoplasmic), KMS11 cells
[40] = target: HLA-DR as expressed by cancer cell lines (human); test: flow cytometry, permeabilized (cytoplasmic), Moser cells
[41] = target: HLA-DR as expressed by cancer cell lines (human); test: flow cytometry, permeabilized (cytoplasmic), TU118 cells
[42] = target: HLA-DR as expressed by cancer cell lines (human); test: flow cytometry, permeabilized (cytoplasmic), Aspc-1 cells
[43] = target: HLA-DR as expressed by cancer cell lines (human); test: flow cytometry, permeabilized (cytoplasmic), BxPC-3 cells
[44] = target: HLA-DR as expressed by cancer cell lines (human); test: flow cytometry, permeabilized (cytoplasmic), LS174T cells
[45] = target: HLA-DR as expressed by cancer cell lines (human); test: flow cytometry, permeabilized (cytoplasmic), Panc-1 cells
[46] = target: HLA-DR as expressed by cancer cell lines (human); test: flow cytometry, permeabilized (cytoplasmic), Capan-1 cells
[47] = target: HLA-DR as expressed by cancer cell lines (human); test: flow cytometry, permeabilized (cytoplasmic), RL cells + IFNγ
[48] = target: HLA-DR as expressed by cancer cell lines (human); test: flow cytometry, permeabilized (cytoplasmic), CAG cells + IFNγ
[49] = target: HLA-DR as expressed by cancer cell lines (human); test: flow cytometry, permeabilized (cytoplasmic), U87 cells + IFNγ
[50] = target: HLA-DR as expressed by cancer cell lines (human); test: flow cytometry, permeabilized (cytoplasmic), HT29 cells + IFNγ
[51] = target: HLA-DR as expressed by cancer cell lines (human); test: flow cytometry, permeabilized (cytoplasmic), Lovo cells + IFNγ
[52] = target: HLA-DR as expressed by cancer cell lines (human); test: flow cytometry, permeabilized (cytoplasmic), U118 cells + IFNγ
[53] = target: HLA-DR as expressed by cancer cell lines (human); test: flow cytometry, permeabilized (cytoplasmic), Capan cells + IFNγ
[54] = target: HLA-DR as expressed by cancer cell lines (human); test: flow cytometry, permeabilized (cytoplasmic), FSCCL cells + IFNγ
[55] = target: HLA-DR as expressed by cancer cell lines (human); test: flow cytometry, permeabilized (cytoplasmic), KMS11 cells + IFNγ
[56] = target: HLA-DR as expressed by cancer cell lines (human); test: flow cytometry, permeabilized (cytoplasmic), Moser cells + IFNγ
[57] = target: HLA-DR as expressed by cancer cell lines (human); test: flow cytometry, permeabilized (cytoplasmic), TU118 cells + IFNγ
[58] = target: HLA-DR as expressed by cancer cell lines (human); test: flow cytometry, permeabilized (cytoplasmic), Aspc-1 cells + IFNγ
[59] = target: HLA-DR as expressed by cancer cell lines (human); test: flow cytometry, permeabilized (cytoplasmic), BxPC-3 cells + IFNγ
[60] = target: HLA-DR as expressed by cancer cell lines (human); test: flow cytometry, permeabilized (cytoplasmic), LS174T cells + IFNγ
[61] = target: HLA-DR as expressed by cancer cell lines (human); test: flow cytometry, permeabilized (cytoplasmic), Panc-1 cells + IFNγ

B1: hL243γ4P (humanized anti-HLA-DR antibody) (antibody, from a related filing, V domains shown)
VH: QVQLQQSGSELKKPGASVKVSCKASGFTFTNYGMNWVKQAPGQGLKWMGWINTYTREPTYADDFKGRFAFSLDTSVSTAYLQISSLKADDTAVYFCARDITAVVPTGFDYWGQGSLVTVSS
VL: DIQLTQSPSSLSASVGDRVTITCRASENIYSNLAWYRQKPGKAPKLLVFAASNLADGVPSRFSGSGSGTDYTFTISSLQPEDIATYYCQHFWTTPWAFGGGTKLQIKR
- increased killing in vitro after IFN-γ exposure, WSU-FSCCL NHL cells [1]: 58%
- fluorescence intensity (flow cytometry) [2]: 750
- fluorescence intensity (flow cytometry) [3]: 1930
- fluorescence intensity (flow cytometry) [4]: 41.9
- fluorescence intensity (flow cytometry) [5]: 3.3
- fluorescence intensity (flow cytometry) [6]: 7.3
- fluorescence intensity (flow cytometry) [7]: 6.1
- fluorescence intensity (flow cytometry) [8]: 1090
- fluorescence intensity (flow cytometry) [9]: 677
- fluorescence intensity (flow cytometry) [10]: 4
- fluorescence intensity (flow cytometry) [11]: 5.08
- fluorescence intensity (flow cytometry) [12]: 3.2
- fluorescence intensity (flow cytometry) [13]: 2.3
- fluorescence intensity (flow cytometry) [14]: 5.3
- fluorescence intensity (flow cytometry) [15]: 4.3
- fluorescence intensity (flow cytometry) [16]: 5.5
- fluorescence intensity (flow cytometry) [17]: 862
- fluorescence intensity (flow cytometry) [18]: 1810
- fluorescence intensity (flow cytometry) [19]: 172
- fluorescence intensity (flow cytometry) [20]: 298
- fluorescence intensity (flow cytometry) [21]: 276
- fluorescence intensity (flow cytometry) [22]: 197
- fluorescence intensity (flow cytometry) [23]: 66.2
- fluorescence intensity (flow cytometry) [24]: 1610
- fluorescence intensity (flow cytometry) [25]: 665
- fluorescence intensity (flow cytometry) [26]: 8.5
- fluorescence intensity (flow cytometry) [27]: 93.5
- fluorescence intensity (flow cytometry) [28]: 15.2
- fluorescence intensity (flow cytometry) [29]: 43.8
- fluorescence intensity (flow cytometry) [30]: 4.7
- fluorescence intensity (flow cytometry) [31]: 4.7
- fluorescence intensity (flow cytometry) [32]: 1060
- fluorescence intensity (flow cytometry) [33]: 2320
- fluorescence intensity (flow cytometry) [34]: 102
- fluorescence intensity (flow cytometry) [35]: 9.1
- fluorescence intensity (flow cytometry) [36]: 32.5
- fluorescence intensity (flow cytometry) [37]: 24.6
- fluorescence intensity (flow cytometry) [38]: 1470
- fluorescence intensity (flow cytometry) [39]: 879
- fluorescence intensity (flow cytometry) [40]: 18.2
- fluorescence intensity (flow cytometry) [41]: 23.6
- fluorescence intensity (flow cytometry) [42]: 11
- fluorescence intensity (flow cytometry) [43]: 14.2
- fluorescence intensity (flow cytometry) [44]: 23.4
- fluorescence intensity (flow cytometry) [45]: 22.7
- fluorescence intensity (flow cytometry) [46]: 11.6
- fluorescence intensity (flow cytometry) [47]: 1180
- fluorescence intensity (flow cytometry) [48]: 2420
- fluorescence intensity (flow cytometry) [49]: 429
- fluorescence intensity (flow cytometry) [50]: 638
- fluorescence intensity (flow cytometry) [51]: 989
- fluorescence intensity (flow cytometry) [52]: 352
- fluorescence intensity (flow cytometry) [53]: 253
- fluorescence intensity (flow cytometry) [54]: 2520
- fluorescence intensity (flow cytometry) [55]: 927
- fluorescence intensity (flow cytometry) [56]: 40.5
- fluorescence intensity (flow cytometry) [57]: 215
- fluorescence intensity (flow cytometry) [58]: 73.6
- fluorescence intensity (flow cytometry) [59]: 130
- fluorescence intensity (flow cytometry) [60]: 42.3
- fluorescence intensity (flow cytometry) [61]: 64.1
